In paper PMC10707181, “Neuronal Scaffold Protein ARMS Interacts with Synaptotagmin-4 C2AB through the Ankyrin Repeat Domain with an Unexpected Mode” (International Journal of Molecular Sciences, 2023):

B1: ARMS ankyrin repeats 1–11 (R1-11, residues 1–365) [rat] / Syt4 132–425 [human] (parent complex)
chain 1: MSVLISQSVINYVEEENIPALKALLEKCKDVDERNECGQTPLMLAAEQGNVEIVKELLKNGANCNLEDLDNWTALISASKEGHIHIVEELLKSGASLEHRDMGGWTALMWACYKGRTDVVELLLSHGANPSVTGLYSVYPIIWAAGRGHADIVHLLLQNGAKVNCSDKYGTTPLVWAARKGHLECVKHLLAMGADVDQEGANSMTALIVAVKGGYTQSVKEILKRNPNVNLTDKDGNTALMIASKEGHIEIVQDLLDAGTYVNIPDRSGDTVLIGAVRGGHVEIVRALLQKYADIDIRGQDNKTALYWAVEKGNATMVRDILQCNPDTEICTKDGETPLIKATKMRNIEVVELLLDKGAKVSAVD
chain 2: ESVSPESLKSSTSLTSEEKQEKLGTLFFSLEYNFERKAFVVNIKEARGLPAMDEQSMTSDPYIKMTILPEKKHKVKTRVLRKTLDPAFDETFTFYGIPYTQIQELALHFTILSFDRFSRDDIIGEVLIPLSGIELSEGKMLMNREIIKRNVRKSSGRGELLISLCYQSTTNTLTVVVLKARHLPKSDVSGLSDPYVKVNLYHAKKRISKKKTHVKKCTPNAVFNELFVFDIPCEGLEDISVEFLVLDSERGSRNEVIGQLVLGAAAEGTGGEHWKEICDYPRRQIAKWHVLCDG

Variants of: B1
Test: ITC; parent: 1.2e+04 nM

Variant	Kd [µM]
chain 2 ESVSPESLKSSTSLTSEEKQEKLGTLFFSLEYNFERKAFVVNIKEARGLPAMDEQSMTSDPYIKMTILPEKKHKVKTRVLRKTLDPAFDETFTFYGIPYTQIQELALHFTILSFDRFSRDDIIGEVLIPLSGIELSEGKMLMNREIIAANVRKSSGRGELLISLCYQSTTNTLTVVVLKARHLPKSDVSGLSDPYVKVNLYHAKKRISKKKTHVKKCTPNAVFNELFVFDIPCEGLEDISVEFLVLDSERGSRNEVIGQLVLGAAAEGTGGEHWKEICDYPRRQIAKWHVLCDG [chain 2 K148A, chain 2 R149A]	9
chain 2 ESVSPESLKSSTSLTSEEKQEKLGTLFFSLEYNFERKAFVVNIKEARGLPAMDEQSMTSDPYIKMTILPEKKHKVKTRVLRKTLDPAFDETFTFYGIPYTQIQELALHFTILSFDRFSRDDIIGEVLIPLSGIELSEGKMLMNREIIKRNVRASSGRGELLISLCYQSTTNTLTVVVLKARHLPKSDVSGLSDPYVKVNLYHAKKRISKKKTHVKKCTPNAVFNELFVFDIPCEGLEDISVEFLVLDSERGSRNEVIGQLVLGAAAEGTGGEHWKEICDYPRRQIAKWHVLCDG [chain 2 K153A]	3
chain 2 ESVSPESLKSSTSLTSEEKQEKLGTLFFSLEYNFERKAFVVNIKEARGLPAMDEQSMTSDPYIKMTILPEKKHKVKTRVLRKTLDPAFDETFTFYGIPYTQIQELALHFTILSFDRFSRDDIIGEVLIPLSGIELSEGKMLMNREIIKRNVRKSSGAGELLISLCYQSTTNTLTVVVLKARHLPKSDVSGLSDPYVKVNLYHAKKRISKKKTHVKKCTPNAVFNELFVFDIPCEGLEDISVEFLVLDSERGSRNEVIGQLVLGAAAEGTGGEHWKEICDYPRRQIAKWHVLCDG [chain 2 R157A]	10
chain 2 ESVSPESLKSSTSLTSEEKQEKLGTLFFSLEYNFERKAFVVNIKEARGLPAMDEQSMTSDPYIKMTILPEKKHKVKTRVLRKTLDPAFDETFTFYGIPYTQIQELALHFTILSFDRFSRDDIIGEVLIPLSGIELSEGKMLMNREIIKRNVAASSGRGELLISLCYQSTTNTLTVVVLKARHLPKSDVSGLSDPYVKVNLYHAKKRISKKKTHVKKCTPNAVFNELFVFDIPCEGLEDISVEFLVLDSERGSRNEVIGQLVLGAAAEGTGGEHWKEICDYPRRQIAKWHVLCDG [chain 2 R152A, chain 2 K153A]	4
chain 2 ESVSPESLKSSTSLTSEEKQEKLGTLFFSLEYNFERKAFVVNIKEARGLPAMDEQSMTSDPYIKMTILPEKKHKVKTRVLRKTLDPAFDETFTFYGIPYTQIQELALHFTILSFDRFSRDDIIGEVLIPLSGIELSEGKMLMNREIIKRNVAKSSGRGELLISLCYQSTTNTLTVVVLKARHLPKSDVSGLSDPYVKVNLYHAKKRISKKKTHVKKCTPNAVFNELFVFDIPCEGLEDISVEFLVLDSERGSRNEVIGQLVLGAAAEGTGGEHWKEICDYPRRQIAKWHVLCDG [chain 2 R152A]	4
chain 2 ESVSPESLKSSTSLTSEEKQEKLGTLFFSLEYNFERKAFVVNIKEARGLPAMDEQSMTSDPYIKMTILPEKKHKVKTRVLRKTLDPAFDETFTFYGIPYTQIQELALHFTILSFDRFSRDDIIGEVLIPLSGIELSEGKMLMNREIIAANVAKSSGRGELLISLCYQSTTNTLTVVVLKARHLPKSDVSGLSDPYVKVNLYHAKKRISKKKTHVKKCTPNAVFNELFVFDIPCEGLEDISVEFLVLDSERGSRNEVIGQLVLGAAAEGTGGEHWKEICDYPRRQIAKWHVLCDG [chain 2 K148A, chain 2 R149A, chain 2 R152A]	19
chain 2 ESVSPESLKSSTSLTSEEKQEKLGTLFFSLEYNFERKAFVVNIKEARGLPAMDEASMTSDPYIKMTILPEKKHKVKTRVLRKTLDPAFDETFTFYGIPYTQIQELALHFTILSFDRFSRDDIIGEVLIPLSGIELSEGKMLMNREIIKRNVRKSSGRGELLISLCYQSTTNTLTVVVLKARHLPKSDVSGLSDPYVKVNLYHAKKRISKKKTHVKKCTPNAVFNELFVFDIPCEGLEDISVEFLVLDSERGSRNEVIGQLVLGAAAEGTGGEHWKEICDYPRRQIAKWHVLCDG [chain 2 Q55A]	3
